B1: KCNG1 (parent)
chain: LFVTVTAVNLSVSTLPSLREEEEQ

Variants of: B1
Experiment: protein stability index of a GFP-peptide fusion (GPS, HEK-293T) (PSI 1-6); higher = more stable
Settings: c terminus: a fixed tail appended
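Further: lentivirally expressed fusions sorted by FACS into six bins by GFP to DsRed ratio, PSI derived from sequencing read proportions per bin multiplied by bin number.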

| Variant | protein stability index |
| --- | --- |
| LFVTVTAVNLSVSTLPSDREEEEQ [L18D] | 2.05 |
| LFVTVTAVNLSVSTLPSWREEEEQ [L18W] | 3.02 |
| LFVTVTAVNLSVSTLPSNREEEEQ [L18N] | 2.47 |
| LFVTVTAVNLSVSTLPSQREEEEQ [L18Q] | 2.23 |
| LFVTVTAVNLSVSTLPSAREEEEQ [L18A] | 3.29 |
| LFVTVTAVNLSVSTLPSVREEEEQ [L18V] | 2.17 |
| LFVTVTAVNLSVSTLPSTREEEEQ [L18T] | 3.48 |
| LFVTVTAVNLSVSTLPSIREEEEQ [L18I] | 1.62 |
| LFVTVTQVNLSVSTLPSLREEEEQ [A7Q] | 2.58 |
| LFVTVTDVNLSVSTLPSLREEEEQ [A7D] | 2.89 |
| LFVTVTEVNLSVSTLPSLREEEEQ [A7E] | 3.03 |
| LFVTVTYVNLSVSTLPSLREEEEQ [A7Y] | 3.4 |
| LFVTVTIVNLSVSTLPSLREEEEQ [A7I] | 4.2 |
| LFVTVTPVNLSVSTLPSLREEEEQ [A7P] | 1.8 |
| LFVTVTKVNLSVSTLPSLREEEEQ [A7K] | 3.01 |
| LFVTVTMVNLSVSTLPSLREEEEQ [A7M] | 2.03 |
| LFVTVTTVNLSVSTLPSLREEEEQ [A7T] | 1.34 |
| LFVTVTAVNLSVSTLPSLRSEEEQ [E20S] | 3.18 |
| LFVTVTAVNLSVSTLPSLRDEEEQ [E20D] | 1.67 |
| LFVTVTAVNLSVSTLPSLRFEEEQ [E20F] | 3.08 |
| LFVTVTAVNLSVSTLPSLVEEEEQ [R19V] | 1.99 |
| LFVTVTAVNLSVSTLPSLCEEEEQ [R19C] | 2.09 |
| LFVTVTAVNLSVSTLPSLSEEEEQ [R19S] | 2.41 |
| LFVTVTAVNLSVSTLPSLDEEEEQ [R19D] | 2.32 |

| Variant | protein stability index |
| --- | --- |
| LFVTVTAVNLSVSTLPSLKEEEEQ [R19K] | 3.36 |
| LFVTVTAVNLSVSTLPSLNEEEEQ [R19N] | 1.96 |
| LFVTVTAVNLSVSTLPSLQEEEEQ [R19Q] | 1.2 |
| LFVTVTAVNLSVSTLPSLFEEEEQ [R19F] | 3.41 |
| LFVTYTAVNLSVSTLPSLREEEEQ [V5Y] | 2.14 |
| LFVTQTAVNLSVSTLPSLREEEEQ [V5Q] | 3.94 |
| LFVTCTAVNLSVSTLPSLREEEEQ [V5C] | 2.1 |
| LFVTGTAVNLSVSTLPSLREEEEQ [V5G] | 3.99 |
| LFVTWTAVNLSVSTLPSLREEEEQ [V5W] | 2.3 |
| LFVTATAVNLSVSTLPSLREEEEQ [V5A] | 2.42 |
| LFVTITAVNLSVSTLPSLREEEEQ [V5I] | 3.56 |
| LFVTTTAVNLSVSTLPSLREEEEQ [V5T] | 3.16 |
| LFVTDTAVNLSVSTLPSLREEEEQ [V5D] | 4.51 |
| LFVTKTAVNLSVSTLPSLREEEEQ [V5K] | 3.75 |
| LFVTRTAVNLSVSTLPSLREEEEQ [V5R] | 3.2 |
| LFVTMTAVNLSVSTLPSLREEEEQ [V5M] | 2.18 |
| LFVTVTAPNLSVSTLPSLREEEEQ [V8P] | 2.29 |
| LFVTVTAYNLSVSTLPSLREEEEQ [V8Y] | 2.15 |
| LFVTVTASNLSVSTLPSLREEEEQ [V8S] | 2.77 |
| LFVTVTATNLSVSTLPSLREEEEQ [V8T] | 2.09 |
| LFVPVTAVNLSVSTLPSLREEEEQ [T4P] | 3.13 |
| LFVDVTAVNLSVSTLPSLREEEEQ [T4D] | 3.23 |
| LFVLVTAVNLSVSTLPSLREEEEQ [T4L] | 1.08 |
| LFVHVTAVNLSVSTLPSLREEEEQ [T4H] | 1.93 |

| Variant | protein stability index |
| --- | --- |
| LFVGVTAVNLSVSTLPSLREEEEQ [T4G] | 2.89 |
| LFVKVTAVNLSVSTLPSLREEEEQ [T4K] | 1.64 |
| LFVQVTAVNLSVSTLPSLREEEEQ [T4Q] | 2.71 |
| LFVTVHAVNLSVSTLPSLREEEEQ [T6H] | 1.85 |
| LFVTVGAVNLSVSTLPSLREEEEQ [T6G] | 1.3 |
| LFVTVAAVNLSVSTLPSLREEEEQ [T6A] | 1.69 |
| LFVTVRAVNLSVSTLPSLREEEEQ [T6R] | 1.64 |
| LFVTVPAVNLSVSTLPSLREEEEQ [T6P] | 3.96 |
| LFVTVDAVNLSVSTLPSLREEEEQ [T6D] | 3.21 |
| LFVTVSAVNLSVSTLPSLREEEEQ [T6S] | 2.27 |
| LFVTVTAVNLSKSTLPSLREEEEQ [V12K] | 2.44 |
| LFVTVTAVNLSRSTLPSLREEEEQ [V12R] | 1.89 |
| LFVTVTAVNLSESTLPSLREEEEQ [V12E] | 2.19 |
| LFVTVTAVNLSASTLPSLREEEEQ [V12A] | 2.71 |
| LFVTVTAVNLSSSTLPSLREEEEQ [V12S] | 1.85 |
| LFVTVTAVNLSFSTLPSLREEEEQ [V12F] | 2.17 |
| LFVTVTAVNLSCSTLPSLREEEEQ [V12C] | 2.79 |
| LFVTVTAVNLSMSTLPSLREEEEQ [V12M] | 1.47 |
| LFVTVTAVNLSGSTLPSLREEEEQ [V12G] | 1.45 |
| LFVTVTAVNLSVSTLPSLREEETQ [E23T] | 4.29 |
| LFVTVTAVNLSVSTLPSLREEEYQ [E23Y] | 2.93 |
| LFVTVTAVNLSVSTLPSLREEEKQ [E23K] | 2.12 |
| LFVTVTAVNLSVSTLPSLREEEDQ [E23D] | 1.71 |
| LFVTVTAVNLSVSTLPSLREEECQ [E23C] | 2.7 |

| Variant | protein stability index |
| --- | --- |
| LFVTVTAVNLSVSTLPSLREEELQ [E23L] | 3.24 |
| LFVTVTAVNLSVDTLPSLREEEEQ [S13D] | 1.55 |
| LFVTVTAVNLSVHTLPSLREEEEQ [S13H] | 1.29 |
| LFVTVTAVNLRVSTLPSLREEEEQ [S11R] | 2.63 |
| LFVTVTAVNLMVSTLPSLREEEEQ [S11M] | 3.64 |
| LFVTVTAVHLSVSTLPSLREEEEQ [N9H] | 3.18 |
| LFVTVTAVYLSVSTLPSLREEEEQ [N9Y] | 2.02 |
| LFVTVTAVDLSVSTLPSLREEEEQ [N9D] | 1.45 |
| LFVTVTAVQLSVSTLPSLREEEEQ [N9Q] | 2.65 |
| LFVTVTAVNLSVSTLNSLREEEEQ [P16N] | 3.87 |
| LFVTVTAVNLSVSTLDSLREEEEQ [P16D] | 1.19 |
| LFVTVTAVNLSVSTLSSLREEEEQ [P16S] | 2.05 |
| LFVTVTAVNDSVSTLPSLREEEEQ [L10D] | 2.76 |
| LFVTVTAVNFSVSTLPSLREEEEQ [L10F] | 3.38 |
| LFVTVTAVNSSVSTLPSLREEEEQ [L10S] | 2.21 |
| LFVTVTAVNQSVSTLPSLREEEEQ [L10Q] | 3.77 |
| LFVTVTAVNVSVSTLPSLREEEEQ [L10V] | 1.9 |
| LFVTVTAVNNSVSTLPSLREEEEQ [L10N] | 3.48 |
| LFVTVTAVNTSVSTLPSLREEEEQ [L10T] | 2.03 |
| LFVTVTAVNCSVSTLPSLREEEEQ [L10C] | 1.45 |
| LRVTVTAVNLSVSTLPSLREEEEQ [F2R] | 2.5 |
| LHVTVTAVNLSVSTLPSLREEEEQ [F2H] | 2.19 |

From the supplement of paper PMC10567573
